Test [1] deals with T1, Recombinant human IL-1beta (rhIL-1b) (human, UniProt P01584 117-269). In words: cell-based or functional assay.
The target of test [2] is T1, Recombinant human IL-1beta (rhIL-1b). In words: cell-based or functional assay. This is another data set of the same source.
For test [3] the target is unchanged. Description: Biacore, Low Resolution screen. (Surface plasmon resonance follows binding to a sensor surface in real time, without labels.)
Test [4] concerns the target T2, IL-1β R11A mutant (human, UniProt P01584 117-269).
T2 construct: site-directed mutant
Description: binding to site-directed IL-1β mutant; X = abrogation of binding.

In test [5] the target is T3, IL-1β H30A mutant (human, UniProt P01584 117-269).
T3 construct: site-directed mutant
Described as above.

Test [6] deals with T1, Recombinant human IL-1beta (rhIL-1b). Description: Biacore, Medium Resolution; IL-1β in solution; medium-resolution Biacore.
Test [7] shares this target. In words: Biacore low-res, mAb captured, 25C; IL-1β in solution (118 nM) over captured mAb; low-resolution Biacore, 25 C.
Test [8] shares this target. In words: cell-based or functional assay. The source holds these as a separate data set.
For test [9] the target is unchanged. Description: cell-based or functional assay. The source holds these as a separate data set.
Test [10] shares this target. In words: KinExA direct kinetic method. (In general: Kinetic exclusion samples the free partner from a solution-phase mixture.)
Test [11] shares this target. In words: KinExA, triple curve analysis.
For test [12] the target is unchanged. Description: calculated as kon x KD from KinExA.
For test [13] the target is unchanged. In words: KinExA, single KD-controlled titration.
In test [14] the target is T2, IL-1β R11A mutant. Description: binding to site-directed IL-1β mutants.
In test [15] the target is T3, IL-1β H30A mutant. Description: binding to site-directed IL-1β mutants.
Test [16] deals with T1, Recombinant human IL-1beta (rhIL-1b). Description: Biacore, Low Resolution screen; complex kinetics.
The target in test [17] is T4, IL-1β R4A mutant (human, UniProt P01584 117-269).
T4 construct: site-directed mutant
In words: binding to site-directed IL-1β mutant; X = abrogation of binding.

For test [18], the target named is T1, Recombinant human IL-1beta (rhIL-1b). Description: Biacore high-res, mAb amine-coupled, 23C, long association and dissociation, IL-1β 55 pM.
Test [19] has the same target. Description: Biacore, Medium Resolution; IL-1β in solution; medium-resolution Biacore; complex kinetics.
For test [20] the target is unchanged. Description: Biacore, Medium Resolution; complex kinetics; IL-1β in solution; medium-resolution Biacore; complex kinetics.
For test [21] the target is unchanged. Description: Biacore low-res, mAb captured, 25C; IL-1β in solution (118 nM) over captured mAb; low-resolution Biacore, 25 C; poor fit to 1:1 model.
The target is the same in test [22]. Description: Biacore low-res, mAb captured, 25C; poor fit to 1:1 model; IL-1β in solution (118 nM) over captured mAb; low-resolution Biacore, 25 C; poor fit to 1:1 model.

We go through two molecules from US20070065439A1 (Amgen, published 2007).

B1: 9.54.1 (antibody, human IgG4, V domains shown)
VH: QVQLVESGGGVVQPGRSLRLSCAASGFTFSSFGMHWVRQAPGKGLEWVAVIWYDGSNKYYADSVKGRFTISRDNSKNTLYLQMNSLRAEDTAVYYCARDPNYDILTGYYYYGMDVWGQGTTVTVS
VL: SSELTQDPAVSVALGQTVRITCQGDILRTYYASWYQQKPGQAPVLVIYGKNDRPSGIPDRFSGSSSGNTASLTITGAQAEDEADYYCDSRDNTVTHLVFGGGTKLTVL
notes: lambda; also called 9.54.2
Usually Kd stands for the free concentration of one partner at which half of the binding sites on the other are occupied at equilibrium, for simple one-to-one binding. As usually defined, the koff is the rate constant with which the complex falls apart. As a reminder, the kon is the rate constant with which the complex forms. As for B1, in test [1], the “% IL-6 production, supernatant 1:5 dilut.” value turned out to be 5%; the “% IL-6 production, supernatant 1:10 dilut.” value was 21%; the “% IL-6 production, supernatant 1:20 dilut.” value was found to be 36%. In addition, the “EC50, inhibition of IL-1β-induced IL-6 production in MRC-5 cells” value in test [2] was 11600 pM. For the same molecule, the equilibrium dissociation constant (Kd) in test [3] was 370 pM. Also, the binding result in [4] is recorded as “no binding”. The binding result in [5] is reported as “no binding”. In test [6], the Kd amounted to 140 pM, the koff is 0.00035 s⁻¹ and the kon worked out at 2.5e+06 M⁻¹ s⁻¹. Besides, in test [7], the Kd was 370 pM, the koff stood at 0.00085 s⁻¹ and the kon came out at 2.3e+06 M⁻¹ s⁻¹.

B2: 9.5.2 IgG4 (antibody, V domains shown)
VH: EVQLVESGGGLVKPGRSLRLSCTGSGFTFGDYALNWFRQAPGMGLEWVGFIRGKAYGGTTEYAASVKGRFTISRDDSKSIAYLQMNSLKTEDTAVYYCNREVEYCRSSENYCYGMDVWGQGTTVTVS
VL: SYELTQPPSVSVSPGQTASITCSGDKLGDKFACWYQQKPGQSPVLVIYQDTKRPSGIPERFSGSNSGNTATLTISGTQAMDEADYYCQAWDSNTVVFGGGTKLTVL
notes: also called mAb 9.5.2; mAb 9.5.2 (IgG4 isotype)
Take B2: in [1], the “% IL-6 production, supernatant 1:5 dilut.” value was determined as 0%. The “% IL-6 production, supernatant 1:10 dilut.” value in [1] is 0%. In addition, the “% IL-6 production, supernatant 1:20 dilut.” value in [1] stood at 0%. The “EC50, inhibition of IL-1β-induced IL-6 production in MRC-5 cells” value in test [2] amounted to 4 pM. Also, the “EC50, inhibition of IL-1β-induced IL-8 production in human whole blood” value in test [8] was 135 pM. For the same molecule, in test [9], the “In Vivo Potency EC50, inhibition of IL-6 induced in mice by human IL-1β” value came to 5 pmoles/mouse. Besides, the kon in [10] came to 3.4e+06 M⁻¹ s⁻¹; in test [18], 710000 M⁻¹ s⁻¹; in [19], 2.6e+06 M⁻¹ s⁻¹; in test [21] it was 1.1e+06 M⁻¹ s⁻¹. In addition, the Kd in [11] turned out to be 0.181 pM; in test [13], 0.04 pM; in [16], 1640 pM; in [18], 1.5 pM; in test [20] it was 130 pM; in [22], 1640 pM. Moreover, the koff in test [12] was 6.1e-07 s⁻¹; in test [18] it was 1.1e-06 s⁻¹; in [19], 0.00035 s⁻¹; in test [21] it was 0.0018 s⁻¹. For the same molecule, the binding result is reported as “binds” in [14], “binds” in [15] and “no binding” in test [17].
